From paper PMC2141704

Molecular target: GST-mouse ZO-1 (1–862 amino acids) (mouse) (UniProt P39447)
Experiment: pull-down

UniProt P39447, sequence (P39447 1-862): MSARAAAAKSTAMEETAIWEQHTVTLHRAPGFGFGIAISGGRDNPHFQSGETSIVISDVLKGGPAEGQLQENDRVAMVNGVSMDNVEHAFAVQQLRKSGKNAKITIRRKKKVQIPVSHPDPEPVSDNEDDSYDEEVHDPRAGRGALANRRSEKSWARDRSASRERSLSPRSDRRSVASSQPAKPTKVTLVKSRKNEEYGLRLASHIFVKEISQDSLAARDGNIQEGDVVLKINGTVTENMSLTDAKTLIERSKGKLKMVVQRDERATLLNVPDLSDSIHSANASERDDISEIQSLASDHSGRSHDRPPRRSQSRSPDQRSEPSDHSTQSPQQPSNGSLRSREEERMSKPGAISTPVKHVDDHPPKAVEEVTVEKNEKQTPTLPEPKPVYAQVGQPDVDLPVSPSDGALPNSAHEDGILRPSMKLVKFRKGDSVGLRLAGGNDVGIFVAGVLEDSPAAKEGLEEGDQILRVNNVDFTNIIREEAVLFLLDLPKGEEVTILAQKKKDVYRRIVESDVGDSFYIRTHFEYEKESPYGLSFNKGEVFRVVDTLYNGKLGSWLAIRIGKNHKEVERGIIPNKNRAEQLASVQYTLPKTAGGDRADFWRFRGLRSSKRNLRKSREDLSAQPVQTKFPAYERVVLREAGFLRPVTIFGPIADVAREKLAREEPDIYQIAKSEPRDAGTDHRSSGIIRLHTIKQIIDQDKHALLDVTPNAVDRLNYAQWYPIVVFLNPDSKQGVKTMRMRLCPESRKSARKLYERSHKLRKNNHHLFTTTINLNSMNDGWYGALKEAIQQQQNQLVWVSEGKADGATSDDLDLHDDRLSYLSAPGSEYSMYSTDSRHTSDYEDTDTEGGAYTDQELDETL

Kd: 260 nM
Substance: MBP-AF-6 (36–206 amino acids) (domain or fragment)
